# Measured values as given in the supplement of paper PMC9170038.
# Tested on: MS2 coat protein
# Assay: apparent KD of MS2 coat protein; higher = weaker reporter binding
# Details: Eterna round: R107
# Method: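 RNA-MaP round R107: designed RNA switches with theophylline, tryptophan, arginine or FMN aptamers are transcribed on-chip within common flanks. They are titrated with SNAP-549-labelled MS2 coat protein in RNA-MaP buffer (100 mM Tris pH 7.5, 80 mM KCl, 4 mM MgCl2), without ligand or with the indicated ligand. Median apparent KD per design.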
# [1] = input ligand: theophylline 20 uM
# [2] = input ligand: theophylline 2 mM
# [3] = input ligand: tryptophan 2.4 mM
Sequence,apparent KD of MS2 coat protein (input ligand: arginine 13.2 mM) [nM],apparent KD of MS2 coat protein (input ligand: none) [nM],apparent KD of MS2 coat protein [1] [nM],apparent KD of MS2 coat protein [2] [nM],apparent KD of MS2 coat protein [3] [nM]
GGAUAGGACACGGCCGCCACUAUCUAGGAUACUAGCAACAUUUGGGUAUAUGAGGAUCACCCAUAUAGGACCGGGUGUCCUAUCG,138,214,330,303,471
AGCCCUGUACUAGAUACCAGCUACAUGAGGAUCACCCAUGUGCGUCAAGACUGACUGUGUAGCCCUUGGCAGCUGCUCGCAUGUA [Exclusion - Theophylline B (Freestyle 2)],19.7,–,29.9,–,20.9
GAGUAGAGGACGGCCGCCACUGAACAUGAGGAUCACCCAUGUCGUGAUCCGUUGCCUGAAGAAGAUAGGACCGGGUCAUGUGCUC [Exclusion Tryptophan B GF 20],40.4,28.6,44.7,31.8,25.5
UUAUGAUGUUCCGAUACCAGCCAUGUGGUUCUAACUUAACAUGAGGAUCACCCAUGUACCGGCCCUUGGCAGCGGAUGUGGAUUA [Flamini],12,–,14.8,–,12.6
GGCGUCGGGCGAAGGAGCGUGAAGACAUGAGGAUCACCCAUGUAGAGGCCCGGACAGGGUUCGCAGGUAGGUCGCGCGCGGUGCC [#1 Same State - Arginine B Attempt #7 (HarryS)],17.5,13.7,23.2,19.5,16.9
AUGCCUAGUGGAAGGAGCGAGGGUCUUCCCAACAUGAGGAUCACCCAUGUUCUUUUACACCCUCAGGUAGGUCGCCAUUGGGACA [Tilexete],41.7,64.6,107,47.6,82.8
AAAUGUACGUCGGCCGCCACUGCGCUGAAGACAGUCACAUGAGGAUCACCCAUGUACGACAAGGGUAGGACCGGGAUGUGAGGGU [Rate],45.1,–,130,217,–
GUUGAGACCUCGGCCGCCACUCGCCAUGAGGAUCUCCCAUGUAACAUGAGGAUCACCCAUGUACUGAGGACCGGGAGGUCCUUGU [Same State Tryptophan B GF 16],12,–,18.5,15.5,–
AUCGCACCUGGUGAUACCAGCGUUUGCUCGCGACAUGAGGAUCACCCAUGUGGCCAGUGAUGCCCUUGGCAGCAUGGGCGGUGCA [Same State - Theophylline B (Freestyle 28)],111,–,412,–,349
GGACUAACCAGAAGGAGCGACACGCAGAAACUGCAAUUUCCUCUACACGAGGAUCACCCGUGUCAGGUAGGUCGCUGGUUAGUCG,50,53.1,74.8,65,54
CAAUCAAUCAAUCAAUCAAUCAACCAUGAAGGAGCGUGGGAAACCACAGGUAGGUCGCAUGGAAAACAUGAGGAUCACCCAUGUA [Casablanca],22.1,30.9,45.2,36.4,29.2
GCAUCCUAGUCGGCCGCCACUGGUAUCAACACCUUCACCCGUGUGCACAUGAGGAUCACCCAUGUUAGGACCGGGACUAGGAUGC [SSTryp B #19],8.01,–,12.5,9.55,–
AGCGACAUGCGUGAUACCAGCUACAUGAGGAUCACCCAUGUACGUCAGAAAUGACUGUGUAGCCCUUGGCAGCAUAAUGCAUGUC [Exclusion - Theophylline B (Freestyle 19)],38.3,–,60.6,–,44
CACAUGAGGAUCACCCAUGUCUGAACUGAAGGAGCGCUAAACAAGGCAGGUAGGUCGCGGAAUUUUGUGUGCAUAUGCACAUGGG [9.O],19.7,28.2,22.3,24.6,25.8
AACGUAUACAGAAGGAGCGUGAUUUAUAAUUCUUUAAAAUAUACAUGAGGAUCACCCAUGUCACAGGUAGGUCGCUGUAUUCGUA [JR_ExcArginiB_Sub024],29.8,35.7,43.1,35.2,33.2
CAAACAUGAGGAUCACCCAUGUAAUCAGAUACCAGUGACGAAAGUCACCCUUGGCAGCUGAGUACAUAUUGGCAGAGGUGUUUGA [EThA NP+V+V2 #7],41.4,–,94.2,–,64.4
AACUUCGCAUAGGAAAACUAUGUGAAGAAUCGAGGACCGGUACGGCCGCCACUCGUCCUCAACAUGAGGAUCACCCAUGUAAUAA [Mat - Exclusion - Trytophan A - D4],22.1,–,25.4,22.6,–
UGACAUUGCUCAGAUACCAGACAUGAGGAUCACCCAUGUACCAAGAGUACAAAUUAAAAUGUCCCUUGGCAGCUGAGCAAUGUCU [TheoBX 7 #MS2Left #Theo2],25.4,–,37.8,–,19.3
UGUGUAAUUGUCUGGUAGAAUUAUUUGUUUCGAGGACCGGUACGGCCGCCACUCGAUAUUUACAUGAGGAUCACCCAUGUUAGCU [JR_SSTryptoA_Sub004],13.9,14,14.3,14.9,11.6
GGACUAACUCGAAGGAGCGACACGCAGAAACUGCAAUUUCCUCCACACGAGGAUCACCCGUGUCAGGUAGGUCGCGAGUUAGUCG [ArgBX 29],20.8,21.8,26.3,28,19.8

Sequence,apparent KD of MS2 coat protein (input ligand: arginine 13.2 mM) [nM],apparent KD of MS2 coat protein (input ligand: none) [nM],apparent KD of MS2 coat protein [1] [nM],apparent KD of MS2 coat protein [2] [nM],apparent KD of MS2 coat protein [3] [nM]
GGACUAACCAGAAGGAGCGACACGCAGAAACUGCAAUUUCCUCCACACGAGGAUCACCCGUGUCAGGUAGGUCGCUGGUUAGUCG,28.3,25.4,37.3,31,26.7
GAUAGAACAAAAGUUUUAUCAGUGGGUGAACGAGGACCGGUACGGCCGCCACUCGGACAUGAGGAUCACCCAUGUCCAUGUGAAA [AstrosExyTryA#17],12.6,18.1,17.1,19.5,43.9
AACAUGAGGAUCACCCAUGUGUCCUCGAAACGAGGACCGGUACGGCCGCCACUCGAAAAGGUGUUGACGAAAAGUCAGCACCAAA [Mat - Exclusion - Trytophan A - D16],129,264,451,451,820
ACAUGAGGAUCACCCAUGUGUGUAAGUUCUCGAGGACCGGUACGGCCGCCACUCGAACGAGUGUAACGUUAUACUUAGUAUAAUG [SS Trp A s4],22.6,11.4,21.3,15.2,11.4
AUUAACAUGAGGAUCACCCAUGUGGCCCACCGAGGACCGGUACGGCCGCCACUCGUCGGAAAGGCUAAAUUUAUGAAGUCCAAAA [theeternabot_sameState_MS2_Trp_A_40],18.6,–,25.4,17,–
ACAUUUAACUGAAGGAGCGUGAUAUUUACAUGAGGAUCACCCAUGUCUUUCAUGAUAUAUUCACAGGUAGGUCGCAGACUAAUGA [JR_ExcArginiB_Sub006],118,125,160,306,184
UAAUAAGUGCCGGUUCUCAGAUCCUCAUGUCGAGGACCGGUACGGCCGCCACUCGAAACAUGAGGAUCACCCAUGUAAUAAUAAU [#08 Exclusion Tryptophan A],47.8,–,105,73.1,–
UUCUUUAAGUCGGCCGCCACUGAAACAUGAGGAUCACCCAUGUAAAUUUGGGAGUAGUUAUAUUACAGGACCGGGACUAUAGUAA [JR_ExcTryptoB_Sub020],34.8,–,48.8,51,–
CCGUCACAUGAGGAUCACCCAUGUGCGGAAGGAGCGGACGACAGUCCAGGUAGGUCGCCGUAUAGCCAAUGACCAGCAGUGUCGG [Betesotiqu],5.9,10.6,20.8,9.93,13.9
GGAUAGGACAGAAGGAGCGACAUGGCGACGAAAGUCGGACCUUCACAUGAGGAUCACCCAUGUCAGGUAGGUCGCUGUCCUAUCG [ArgXB 6 #MS2Gate #StaticStem],38,48.4,55.2,52.4,46.1
GUGACUUACGGGCGCCAUUUGUAAUAGGAAGGAGCGGCGAAAUAGCCAGGUAGGUCGCCUAUACAUGAGGAUCACCCAUGUCACC [Esatbileor],46.9,91.9,105,105,77.8
CGCACAUGAGGAUCACCCAUGUGAGGGCGGCGAGGACCGGUACGGCCGCCACUCGCAGGACAUGAGGAUCACCCAUGUGCCGCCG [SSTA DOUBLE!!! :-D],32.5,548,397,501,351
UUAAAUGUGACGGAUACCAGCGUGUUGUAGAACAUGAGGAUCACCCAUGUAGUGAUCGAGCGCCCUUGGCAGCUGGUAUGUUUGA [7.Y],102,–,365,–,270
GUUACCAUGUCGGCCGCCACUAACAAGGUUAUGGCAAGUCUACACGACAUGAGGAUCACCCAUGUUAGGACCGGGACCCAUACCC [theeternabot_exclusion_MS2_Trp_B_44],12.2,–,17.5,16.2,–
GGUUACUCUACGGCCGCCACUGAAAAGUAAAUAUUAAUGUACAUGACAUGAGGAUCACCCAUGUACAGGACCGGGUAGUGUAACC [Tryptophan B 13],64.8,–,102,108,–
ACGAUAGCACAAGAGGAUCACCCUUGUGAUACCAGCCUGGAAACAGGCCCUUGGCAGCACACAAAUAAAUUGUAACUAUCGAAUA [TheoAX5 #MicroSwitchBubble #AlternativeMS2],22.5,23.6,43.9,112,29.3
GGACUAACCAGAAGGAGCGAUACGCAGAAACUGCAAUUUCCUCUACACGAGGAUCACCCGUGUCAGGUAGGUCGCUGGUUAGUCG,25.2,26.9,35.2,29.7,26.7
ACAUGAGGAUCACCCAUGUAGCCUAGGGAAGGAGCGUCGUAAGAGACAGGUAGGUCGCCCGCAUGUGAGUCAUCCAUGACGAGGG [#18 Same State - Arginine A],25.7,25.9,30.1,23.6,21.1
UUACCGUAAGGUAUACCGGUCUACAAUAAUCGAGGACCGGUACGGCCGCCACUCGAUGUGUAAUCACAUGAGGAUCACCCAUGUA [Tryptophan A 19],21.1,–,27.7,27.4,–
